Biological target: Human GPR49 (LGR5), full length, on cells (human) (UniProt O75473)
Test: cell-based or functional assay

Human GPR49 (LGR5), full length, on cells (human), sequence (O75473 22-907 limits assumed): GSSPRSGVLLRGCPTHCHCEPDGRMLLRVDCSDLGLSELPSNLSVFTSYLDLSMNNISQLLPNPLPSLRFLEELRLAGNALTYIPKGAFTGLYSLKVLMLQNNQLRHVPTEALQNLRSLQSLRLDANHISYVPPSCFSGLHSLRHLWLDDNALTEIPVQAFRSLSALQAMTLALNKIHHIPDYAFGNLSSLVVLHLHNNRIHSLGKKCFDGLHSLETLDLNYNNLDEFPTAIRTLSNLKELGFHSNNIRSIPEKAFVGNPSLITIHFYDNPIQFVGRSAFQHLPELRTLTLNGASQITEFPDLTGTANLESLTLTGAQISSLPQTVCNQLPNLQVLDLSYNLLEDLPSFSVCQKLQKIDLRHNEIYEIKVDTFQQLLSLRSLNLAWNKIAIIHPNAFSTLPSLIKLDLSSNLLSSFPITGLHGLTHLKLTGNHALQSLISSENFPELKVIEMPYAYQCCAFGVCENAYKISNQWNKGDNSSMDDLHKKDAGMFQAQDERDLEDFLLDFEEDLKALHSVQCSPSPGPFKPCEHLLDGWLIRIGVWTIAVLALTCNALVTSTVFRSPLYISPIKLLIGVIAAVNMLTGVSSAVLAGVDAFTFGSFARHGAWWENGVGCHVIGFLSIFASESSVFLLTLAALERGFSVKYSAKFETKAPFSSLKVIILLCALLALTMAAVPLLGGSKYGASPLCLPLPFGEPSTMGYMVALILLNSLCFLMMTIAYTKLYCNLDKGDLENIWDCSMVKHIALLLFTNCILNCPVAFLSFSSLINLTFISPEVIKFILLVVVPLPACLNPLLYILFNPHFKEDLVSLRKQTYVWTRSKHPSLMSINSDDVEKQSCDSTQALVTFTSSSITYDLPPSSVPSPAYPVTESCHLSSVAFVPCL

increase in proliferation, GPR49-3T3 clone 28: 4 fold
Substance: R-spondin 1 (ligand)
